According to the DeepSol protein solubility set:

Test: soluble on expression in E. coli; label from the status in PepcDB or PDB records
For “GMLTGKHVVIIGGDARQLEIIRKLSTFDAKISLVGFDQLDDGFIGVTKMRIDEVDWNTVDAILLPISGTNEAGKVDTIFSNESIVLTEEMIEKTPNHCVVYSGISNTYLNQCMKKTNRTLVKLMERDDIAIYNSIPTAEGTIMMAIQHTDFTIHGANVAVLGLGRVGMSVARKFAALGAKVKVGARESDLLARIAEMGMEPFHISKAAQELRDVDVCINTIPALVVTANVLAEMPSHTFVIDLASKPGGTDFRYAEKRGIKALLVPGLPGIVAPKTAGRILADVLVKLLAEPS”, the “soluble on expression in E. coli” value was “soluble”. For “MIFNVRGENLEVTPALREYVEKKVGKLERYFDTTPVADVNVRMQVLNNLHIIEVTIPMSRLLLRAEEKHSDMYAAIDLVIEKLERQIRKHKTKVNRKFRQEGSLKYMFKNDLEPMDGMREEILLEEEDDLQVVRKKRFNLKPMDTEEAILQMDMLGHNFFVFSNAISGDTNVVYRRKDGKYGLIEPELEHHHHHH”, the “soluble on expression in E. coli” value was “soluble”. For “MSTNPGPAEGANQVMAQEHSAGAVQFTAHNVRLDDGTLTIPESSRTLDESSWFISARGILETVFPGDKSHLRLADVGCLEGGYAVGFARMGFQVLGIEVRELNMAACNYIKSKTNLPNLRFVHDNALNIANHGLFDTVFCCGLFYHLENPKQYLETLSSVTNKLLILQTHFSIINRSDKWLRLPTTARQLTDRLLRRPAPVKFMLSAPTEHEGLPGRWFTEFSDDRSFGQRDTAKWASWDNRRSFWIQREHLLQAIKDVGVDLVMEEYDNLEPSIAESLLGGSYAANLRGTFIGIKTR”, the “soluble on expression in E. coli” value was “soluble”. With “MAALRYRRFLKLCEEWPVDETKRGRDLGAYLRQRVAQAFREGENTQIAEPEACDQMYESLARLHSNYYKHKYPRPRDTSFSGLSVEEYKLILSTDTLEEFQEMNKSMWKKLQEKFAPTRPEEKHKAWTRVLSRPRT” the “soluble on expression in E. coli” value was “soluble”. For “MNKVAIAVAAVVAGSSALLNSAQAEMYIGGKVGMTTLDDACYLNSPCDDEAFGAGLHIGYDFTDFIGLEYGVDFLGDYKANFKSGASTVDTIDGNLTALTLAPKFNWHLNDSWNLFAKIGGAYMMSEDEKDFVATGSLGAEYSIDRNWSVRAEYQRYQDMSDDVWDDMDANFFGIGVNYKFAAAPVVAAVVTEEVVEPDPEPVLMSKVH”, the “soluble on expression in E. coli” value was “not soluble”. With “MDWSHYRFRSLWALPAPPARVYAALERVEDYPRWWPQVREVTRLDEDCGVIRIRSLLPYDMTFTARDVRHDTAAGILEITMTGDIDGWARWTVTAGGPGTLARYDQEVDVRKPLLRRFAVPGRPVFRANHALMMRAGQRGLLAHLDGLEHHHHHH” the “soluble on expression in E. coli” value was “not soluble”. With “SGRVQLFEISLSHGRVVYSPGEPLAGTVRVRLGAPLPFRAIRVTCIGSCGVSNKANDTAWVVEEGYFNSSLSLADKGSLPAGEHSFPFQFLLPATAPTSFEGPFGKIVHQVRAAIHTPRFSKDHKCSLVFYILSPLNLNSIPDIEQPNVASATKKFSYKLVKTGSVVLTASTDLRGYVVGQALQLHADVENQSGKDTSPVVASLLQKVSYKAKRWIHDVRTIAEVEGAGVKAWRRAQWHEQILVPALPQSALPGCSLIHIDYYLQVSLKAPEATVTLPVFIGNIAVNHAPVSPRPGLGLPPGAPPLVVPSAPPQEEAEAEAAAGGPHFLDPVFLSTKSHSQRQPLLATLSSVPGAPEPCPQDGSPASHPLHPPLCISTGATVPYFAEGSGGPVPTTSTLILPPEYSSWGYPYEAPPSYEQSCGGVEPSLTPES” the “soluble on expression in E. coli” value was “soluble”. With “MSFVPSEVRLDHTFLEWDKEWIFQRLPKTEIQIPREFEPDIETDAIPTIARQPADPNTTWNETGLDQIQMGPTINSTKN” the “soluble on expression in E. coli” value was “not soluble”. With “MGITREELRALVREVVREAVGSLNSSPAQASNQASKPAPPAPPPRATVADQMGLEPTGPRAVEGRNRTETVRLTDDKDLDTFVRKLLRLFESPKTRADLKAGRLRFRLAPGSGAAMANGQAQVTHRIDSGAVTERHIADLAGGTLVLGPRAVLTPLAREKARTLGIVIEKERR” the “soluble on expression in E. coli” value was “not soluble”. In the case of “MTKKDKKEVKVQTVTTEDGETVKVFEDLQGFETFIANETEDDDFDHLHCKLNYYPPFVLHESHEDPEKISDAANSHSKKFVRHLHQHIEKHLLKDIKQAVRKPELKFHEKSKEETFDKITWHYGEETEYHGRPFKIDVQVVCTHEDAMVFVDYKTHPVGAN”, the “soluble on expression in E. coli” value is reported as “soluble”. With “MWQLKKEQNVPIYRSIMEMIVQKIQTGELLPGEKIPSERKLAEYLSVNRSTVVHALDELVDLGWIVRKRGSGTIVNEGKWGVMMTPRTDWHRYLEQNVFKQVHPLVTEIELRAKQNLPTDLDMYTGELPLDLIPSFDFPALNWKQFLKEEAQDELGYLPLRKEIQAITATEYQLHLPSESLLLTSGAQQALFLVLQVLLRQGDSVAVEDPSFFYALPIFQAAGVRLFGVPMTEEGIDLEALEQTIRQHRIKMVMVNPSFQNPTGTVMPLRKREQLVKVCQTYQVPILEDDVFGQLSFIPKTEIPPLKKLDPDNVLYIGSLSKILGSTTKIGWLSAPASVTKQIAEARKMMDVSLSIFPQMLAKMAIEDPSFSEKITLLNKQVEQRATAVYQVFKSLSEWEVSPVKGGFYLWAHWRQGALKPEDWQVFLREGVLVAPSVAFSEKRGSIRLNCSRISPEEMPLFCERMVRITRQLSENRQTKIEQ” the “soluble on expression in E. coli” value was “not soluble”. With “GPGSMNRAESSANALGEEFVKNMNTALDIVESLVAKGEAQFAILASAKSTFCVGADIDQMYTVTDPAVAVQVPTVGHKLFNRIEQEKFPIVAAINGLALGGGFEMSLACHQRLMASTAKVGFPECLLGLLPGGGGTVRTQRLCGLTKTVQWIMTSKQIKPQEAKSAGACDVIIPADDRWNGEHRFYEGVRKWAGQYLSNKPARLSKRKNISLMDQVLENTTFGRRKVADETIKMLNKKTRGKYIAQYKALECIMYSATHSNQQGFDKECRGFAELLCSPEAKNQMSLYFLQEGMKKSADKTGVPKDKVMPVNRVGVIGAGVMGSGIVHYFAKNNIPVAVKDLTEESVKQGITNVRAEFERAVRRKRMVTAELDGKMALVTGGTTNEVFRDADVIVEAAVEVMDIKKKVIQQLEKDGILHSKSLFATNTSSLSLTEMQTVAKCPHNIVGMHFFNPVSKMPLVEVIKGKSTSTEAAAAIFNLALKTGKIPIIVNDGPGFLVNRILGVYMAEAGRLAVDERCHPACVDEAILAFGMPMGPFRLLDEVGLDVACHVGPVLANGLKSDRFSVSATISQMVADGYLGRKNRKGFYTYAAEGKEAGLNSAVLQKYLGEELSASISETEIVDRCVLLMVNEATRILDEGIAMSPEDVDTGMVWGTGFPPFRGGLLQYADHRGIANVVAALEQLQRKTKRDYFAPTETLKKMAIEGKRFFPTRPYVPYQERHGYPKVTY” the “soluble on expression in E. coli” value was “not soluble”. In the case of “MSCPYIDEDKIVGNVEMELKKGGTFDKLRKQAIEHVKDSKLVHRIENEMLVKVDEIIASSANLTQEEIQRKMKDFMNENAKMRNDINRQIRVEFEKEWVHDELDKEIDEKVNKQLENSI”, the “soluble on expression in E. coli” value is reported as “not soluble”. In the case of “MSTHASAHGSTHTSTHHPIAVIGAGLGGLAAARVLHVHGIEAAVYEADASPTARHQGGMLDIHGESGQAALRAAGLYEEFRAIVHPGGEATRILDKDGTVRHEEGDRPEEGDRPEVDRNDLRRILLDSLPEGTIRWGAKVTGARALGGGRHEVTLADGSVFTTDVLIGADGAWSRIRPLLSPATPAYTGISFVEADLHEAATRHRAAAELVGGGSMFALAEGKGILTHLETDGSVHAYVALKADEDWLSTIDFTGTDTDTAKKTLLTHFEDWDDRLRALITDADGALVPRLIHALPVDHRWERTAGVTLLGDAAHLMSPFAGEGANLALLDGAELATALAAHPADPESALTAYERSLFPRSHRAAGESAANLTFMFGPNALEELVGMMSGHEPSDRLEHHHHHH”, the “soluble on expression in E. coli” value is reported as “soluble”. In the case of “MVVNTHRVPSVDVLLDVITERIGLINGAKKLYTTSGTLVKDINKIKDGQNYVASSSHFTPAAYGGQHQPIQKEVKLKKKKKKRSQTVQPRKTEHIELGDEISIPLNEPVVLEKKKKKKKKLVQKNLDLHGSIETLAETAEIELPSEIEDSEEEDEHEHRRSATPDHHRPATKHSVAPSRASSRRGSRRDEEKREEEDEERKKKDEKKRKSVSSSRRKSQAQHHGQPNWGDLSSFTKNIESLLKN”, the “soluble on expression in E. coli” value is reported as “not soluble”.
